In IntAct's records for PubMed 7851759:

B1: Serine/threonine-protein kinase STE11 (Saccharomyces cerevisiae), P23561 (parent)
chain: MEQTQTAEGTDLLIGDEKTNDLPFVQLFLEEIGCTQYLDSFIQCNLVTEEEIKYLDKDILIALGVNKIGDRLKILRKSKSFQRDKRIEQVNRLKNLMEKVSSLSTATLSMNSELIPEKHCVIFILNDGSAKKVNVNGCFNADSIKKRLIRRLPHELLATNSNGEVTKMVQDYDVFVLDYTKNVLHLLYDVELVTICHANDRVEKNRLIFVSKDQTPSDKAISTSKKLYLRTLSALSQVGPSSSNLLAQNKGISHNNAEGKLRIDNTEKDRIRQIFNQRPPSEFISTNLAGYFPHTDMKRLQKTMRESFRHSARLSIAQRRPLSAESNNIGDILLKHSNAVDMALLQGLDQTRLSSKLDTTKIPKLAHKRPEDNDAISNQLELLSVESGEEEDHDFFGEDSDIVSLPTKIATPKNWLKGACIGSGSFGSVYLGMNAHTGELMAVKQVEIKNNNIGVPTDNNKQANSDENNEQEEQQEKIEDVGAVSHPKTNQNIHRKMVDALQHEMNLLKELHHENIVTYYGASQEGGNLNIFLEYVPGGSVSSMLNNYGPFEESLITNFTRQILIGVAYLHKKNIIHRDIKGANILIDIKGCVKITDFGISKKLSPLNKKQNKRASLQGSVFWMSPEVVKQTATTAKADIWSTGCVVIEMFTGKHPFPDFSQMQAIFKIGTNTTPEIPSWATSEGKNFLRKAFELDYQYRPSALELLQHPWLDAHII
partner: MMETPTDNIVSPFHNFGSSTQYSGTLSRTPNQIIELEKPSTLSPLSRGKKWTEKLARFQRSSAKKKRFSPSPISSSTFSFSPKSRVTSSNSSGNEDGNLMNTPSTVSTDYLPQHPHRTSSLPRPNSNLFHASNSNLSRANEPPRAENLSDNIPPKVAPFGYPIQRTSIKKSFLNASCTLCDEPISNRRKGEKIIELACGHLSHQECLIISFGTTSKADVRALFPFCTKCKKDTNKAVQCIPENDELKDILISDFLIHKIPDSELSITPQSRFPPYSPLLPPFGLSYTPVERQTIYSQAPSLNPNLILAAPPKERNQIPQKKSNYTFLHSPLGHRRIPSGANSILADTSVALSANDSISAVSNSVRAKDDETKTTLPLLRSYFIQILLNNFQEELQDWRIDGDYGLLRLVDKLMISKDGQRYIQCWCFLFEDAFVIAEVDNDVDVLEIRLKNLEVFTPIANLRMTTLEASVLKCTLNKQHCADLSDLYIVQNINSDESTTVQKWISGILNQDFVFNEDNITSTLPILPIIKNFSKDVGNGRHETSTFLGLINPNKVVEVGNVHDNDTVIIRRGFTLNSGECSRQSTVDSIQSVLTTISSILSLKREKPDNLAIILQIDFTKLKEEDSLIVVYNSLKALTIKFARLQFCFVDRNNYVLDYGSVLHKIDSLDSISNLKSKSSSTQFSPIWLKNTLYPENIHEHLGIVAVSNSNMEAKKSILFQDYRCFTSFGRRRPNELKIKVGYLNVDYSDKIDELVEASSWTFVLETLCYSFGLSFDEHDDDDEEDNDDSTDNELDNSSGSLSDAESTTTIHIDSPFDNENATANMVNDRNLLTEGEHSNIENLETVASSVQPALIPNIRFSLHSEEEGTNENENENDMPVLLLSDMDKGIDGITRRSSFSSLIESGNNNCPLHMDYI
B2: Serine/threonine-protein kinase STE11 (Saccharomyces cerevisiae), P23561 (parent)
chain: B1 chain
B3: Serine/threonine-protein kinase STE11 (Saccharomyces cerevisiae), P23561 (parent)
chain: B1 chain
partner: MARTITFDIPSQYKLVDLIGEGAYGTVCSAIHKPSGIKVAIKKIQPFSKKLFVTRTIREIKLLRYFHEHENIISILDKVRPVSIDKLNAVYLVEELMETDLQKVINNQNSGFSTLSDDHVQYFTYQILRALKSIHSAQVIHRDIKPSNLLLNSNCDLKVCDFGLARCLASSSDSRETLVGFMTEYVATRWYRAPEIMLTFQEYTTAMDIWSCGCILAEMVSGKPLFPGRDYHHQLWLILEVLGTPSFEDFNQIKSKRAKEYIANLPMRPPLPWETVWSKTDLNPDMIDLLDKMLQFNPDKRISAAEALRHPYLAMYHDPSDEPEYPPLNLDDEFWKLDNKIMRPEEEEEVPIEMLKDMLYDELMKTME

Variants of: B1
Conditions: with ste5_yeast STE5, P32917

| Variant | effect of a mutation on the interaction |
| --- | --- |
| P279S | increasing interaction |

Variants of: B2
Conditions: with fus3_yeast FUS3, P16892
Chain of fus3_yeast FUS3, P16892 (P16892 whole entry): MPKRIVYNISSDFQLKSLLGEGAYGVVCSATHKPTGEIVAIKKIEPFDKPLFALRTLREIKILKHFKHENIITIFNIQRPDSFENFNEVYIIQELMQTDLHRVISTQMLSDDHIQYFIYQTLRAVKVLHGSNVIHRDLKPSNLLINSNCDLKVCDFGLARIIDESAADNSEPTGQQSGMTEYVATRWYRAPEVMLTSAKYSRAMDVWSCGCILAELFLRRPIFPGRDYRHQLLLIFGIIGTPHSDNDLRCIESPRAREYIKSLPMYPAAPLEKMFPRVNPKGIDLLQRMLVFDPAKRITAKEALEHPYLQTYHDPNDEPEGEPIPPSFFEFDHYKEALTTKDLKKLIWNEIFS

| Variant | effect of a mutation on the interaction |
| --- | --- |
| P279S | decreasing interaction |

Variants of: B3
Conditions: with kss1_yeast KSS1, P14681

| Variant | effect of a mutation on the interaction |
| --- | --- |
| P279S | decreasing interaction |
